Experimental data published in patent CN107793479A (SHANGHAI JIBEI BIOLOGICAL TECH CO LTD, dated 2018).

Target: T1, CD19抗原 (B lymphocyte antigen CD19) (human, UniProt P15391 20-291, limits assumed, biotin label in Examples 2-4 (site not stated))
T1 construct: also called CD19-his; CD19-his-biotin; not shown: his tag
T1 sequence (looked up): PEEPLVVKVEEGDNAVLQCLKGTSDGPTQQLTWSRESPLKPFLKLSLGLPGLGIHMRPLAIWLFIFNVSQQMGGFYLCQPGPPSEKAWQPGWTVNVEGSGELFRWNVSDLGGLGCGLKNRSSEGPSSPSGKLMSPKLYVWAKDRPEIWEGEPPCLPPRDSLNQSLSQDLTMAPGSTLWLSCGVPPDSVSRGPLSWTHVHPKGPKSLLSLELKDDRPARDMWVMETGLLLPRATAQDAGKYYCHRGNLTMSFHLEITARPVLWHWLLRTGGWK
Assay: ELISA of periplasmic extract dilutions on a CD19-coated plate, OD450

B1: Combo-5 (scFv in periplasmic extract) (scFv)
scFv: EVKLQESGPGLVAPSQSLSVTCTVSGWSLEDYGVSWIRQSPRKGLEWLGGIIGSQTTYYLAGLKSRLTIIKDNSKSQVFLKMNSLQTDDTAIYYCAKHRYYGGSFDMDYWGQGTSVTVSSGGGGSGGGGSGGGGSDIQMTQTTSSLSASLGDRVTISCRASQDISKYLNWYQQKPDGTVKLLIYHTSRLHSGVPSRFSGSGSGTDYSLTISNLEQEDIATYFCQQGNTLPYTFGGGTKLEIT
notes: Soluble scFv in E. coli periplasmic extract (PPE), not purified
- binding result: binds

B2: Combo-6 (scFv in periplasmic extract) (scFv)
scFv: EVKLQESGPGLVAPSQSLSVTCTVSGWSLEDYGVSWIRQSPRKGLEWLGVIWGSETTYYNSALKSRLTIIKDNSKSQVFLKMNSLQTDDTAIYYCAKHRYYGGSFDMDYWGQGTSVTVSSGGGGSGGGGSGGGGSDIQMTQTTSSLSASLGDRVTISCRASQDISKYLNWYQQKPDGTVKLLIYHTSRLHSGVPSRFSGSGSGTDYSLTISNLEQEDIATYFCQQGNTLPYTFGGGTKLEIT
notes: as for B1
- binding result: binds

B3: Combo-7 (scFv in periplasmic extract) (scFv)
scFv: EVKLQESGPGLVAPSQSLSVTCTVSGWSLEDYGVSWIRQSPRKGLEWLGGIIGSQTTYYLAGLKSRLTIIKDNSKSQVFLKMNSLQTDDTAIYYCAKHWYYGGSFAMDYWGQGTSVTVSSGGGGSGGGGSGGGGSDIQMTQTTSSLSASLGDRVTISCRASQDISKYLNWYQQKPDGTVKLLIYHTSRLHSGVPSRFSGSGSGTDYSLTISNLEQEDIATYFCQQGNTLPYTFGGGTKLEIT
notes: as for B1
- binding result: binds

B4: Combo-8 (scFv in periplasmic extract) (scFv)
scFv: EVKLQESGPGLVAPSQSLSVTCTVSGWSLEDYGVSWIRQSPRKGLEWLGVIWGSETTYYNSALKSRLTIIKDNSKSQVFLKMNSLQTDDTAIYYCAKHWYYGGSFAMDYWGQGTSVTVSSGGGGSGGGGSGGGGSDIQMTQTTSSLSASLGDRVTISCRASQDISKYLNWYQQKPDGTVKLLIYHTSRLHSGVPSRFSGSGSGTDYSLTISNLEQEDIATYFCQQGNTLPYTFGGGTKLEIT
notes: as for B1
- binding result: binds

B5: Combo-9 (scFv in periplasmic extract) (scFv)
scFv: EVKLQESGPGLVAPSQSLSVTCTVSGVSLPDYGVSWIRQPPRKGLEWLGVIWGSETTYYNSALKSRLTIIKDNSKSQVFLKMNSLQTDDTAIYYCAKHYYYGGSYAMDYWGQGTSVTVSSGGGGSGGGGSGGGGSDIQMTQTTSSLSASLGDRVTISCRASQPIRRYLNWYQQKPDGTVKLLIYQTSRLAWGVPSRFSGSGSGTDYSLTISNLEQEDIATYFCQQGKKAPLTFGGGTKLEIT
notes: as for B1
- binding result: binds

B6: Combo-10 (scFv in periplasmic extract) (scFv)
scFv: EVKLQESGPGLVAPSQSLSVTCTVSGVSLPDYGVSWIRQPPRKGLEWLGVIWGSETTYYNSALKSRLTIIKDNSKSQVFLKMNSLQTDDTAIYYCAKHYYYGGSYAMDYWGQGTSVTVSSGGGGSGGGGSGGGGSDIQMTQTTSSLSASLGDRVTISCRASQPIRRYLNWYQQKPDGTVKLLIYHTSRLHSGVPSRFSGSGSGTDYSLTISNLEQEDIATYFCQQGKKAPLTFGGGTKLEIT
notes: as for B1
- binding result: binds

B7: Combo-13 (scFv in periplasmic extract) (scFv)
scFv: EVKLQESGPGLVAPSQSLSVTCTVSGVSLPDYGVSWIRQSPRKGLEWLGVIWGSETTYYNSALKSRLTIIKDNSKSQVFLKMNSLQTDDTAIYYCAKHYYYGGSYAMDYWGQGTSVTVSSGGGGSGGGGSGGGGSDIQMTQTTSSLSASLGDRVTISCRASMDIKKYLNWYQQKPDGTVKLLIYQTSRLAWGVPSRFSGSGSGTDYSLTISNLEQEDIATYFCQQGKKAPLTFGGGTKLEIT
notes: as for B1
- binding result: binds

B8: Combo-14 (scFv in periplasmic extract) (scFv)
scFv: EVKLQESGPGLVAPSQSLSVTCTVSGVSLPDYGVSWIRQSPRKGLEWLGVIWGSETTYYNSALKSRLTIIKDNSKSQVFLKMNSLQTDDTAIYYCAKHYYYGGSYAMDYWGQGTSVTVSSGGGGSGGGGSGGGGSDIQMTQTTSSLSASLGDRVTISCRASMDIKKYLNWYQQKPDGTVKLLIYHTSRLHSGVPSRFSGSGSGTDYSLTISNLEQEDIATYFCQQGKKAPLTFGGGTKLEIT
notes: as for B1
- binding result: binds
